Measured values reported in a protein production outcome set (Wang et al. 2014).

assay: label from the status in PepcDB records

**Q.** Which protein production does the source give for “MKSKNSLLLTTVFTLLVTITTSNVFAAETATVKADENSTDKKNVSKKSYRVSKKVPAMRNRVYSQLSRAQQLADDGDKIEGFEVLAEVEDRLNSLNSYERAMLFNFYGFMYYANEDITLAVDSFNKVIAETAIPDSLIISTLYSLAQLSMQQQHYKEALDYLTQWREINAKELTGTQEMLFAQVYYQDKDFVNSLKHSEMAISLVEAKNKHPKENWLTLQRATYYELKQPKQVTKVMEKLIRLYDKPQYWLQLSSMYGEIGEEDKQMAVMEAAYQAGYITKASDILTLSQLYLFHGAPFKSAAVLEDSIAQGSIFADEDNLSMLARAYLTAKEYDKATKVLVRVSDIAQSGKHDALLAQTYLNTEQWQAAINSSTLALARYAKHKENKGNQVNDIANMHLILGMANFNLKKFERSLTSFAKAAQFTSTKKTALQWGKYVEREQQHHKVQLAMLN” here?
**A.** Its protein production is “failed”.

**Q.** With “MKSLETMARYKKELTECARNLKLPFLAEHLDEILHEAQEKQQTYSEFLSTCLMRELRDKERRSYLTRLKFAGLPARYDLDLYDFSRTEGIDQRQMRELRELVWIRRTYNLLLVGDSGTGKTFIASGLIHEAVKAGYKAYLLTLEELFVCLKTKEISRPAMKTYKRIMKAQLLAIDDVTLFPLKGEDVLLLFKLVNCVQGKTSLIITASRDLTGWLEMAGDEVCAAALLDRLLYCCEIIRLSGKSYRMENRKTIFSNQQIGTASLEHHHHHH” as the sequence, how does the protein production read?
**A.** The protein production was “failed”.

**Q.** With “MKSLLMRTGSMPVLQNRLISGGSSRKMTPISRTNSVESLSSYGERFAGGKISIEVKANVGMRRVLSESDVIRSERMLKRVGSKPSPARIPEDDEAGEEEIRFADGWGSMISGGLPVEEKCFTGGGVGGGSGYSGGYGNGGGGGYEDKSKIGDYYREMLRSNPNNSLLLMNYGKFLYEVEKDAEGAEEYYGRAILENPGDGEALSMYGRLIWETKRDEKRAQGYFDQAVNASPNDCMVLGSYARFMWEAEDDDDDDEEEEEEEWMAASPLMVSAV” as the sequence, how does the protein production read?
**A.** The protein production was “failed”.

**Q.** With “MKSNDTSFRRYLCSASPRLRPALLAMLTVVLLAGCATADKHGLSPQQRSASDLADSEEIDPAARERISHALGRDADEGALRDALKQQPNNIDAAIPLARALLARNCPNDALEVLDGVLLATPGDLRALNAKAVVLDHEGRHQEAQELYRQALAAEPANPMLRNNFGLSLALQGKMDAGDASAAPQAGSRKALARSR” as the sequence, how does the protein production read?
**A.** Its protein production is “failed”.

**Q.** With “MKSNLFMKRKLEIGLSLLIGTSVFGGCNNDLAPIRQSQTFPPNLNAPTVFESFSPDSGGVKTQLIIRGQNFGTDTAYLKVTVNNKRAAIVGVADDVIYAIVPARADTGYVRLFVGKDDNVEEYASQTKFIYQFKRNVTTLMGRQGQSGRDDGPYAECKLQRPWFALADKDGALFFIDEGRGQNKNGALRRAQEGWVETLVQNSSGPFQSPTCLAFNPKQDTLYISNMSYGSDIKTSFNILYVTREGGFMDVKGLCKFEKAETQGLAVHPQTGEIFFCNKSGGYIYRFNGPDYEDYEPLFQINRADKIDTRMVFNPEGTALFVVVCNRHCIYKVPYNALTHTFGEPELFAGGWDESGYVNGSGVTARFDNPRQPAFDQDGNMFVPEYGRHTIRKITPTGEVSLYAGLPGQAGFTDGLPEKARFNKPECVTVYLDNSLYVADRDNHLIRRVTVE” as the sequence, how does the protein production read?
**A.** The protein production was “failed”.

**Q.** For “MKSRTRWLTSEELVTLFEAMRQAPGFSVENGLSIKLLLLLAVRKGELIGARWSEFDLDKAVWYLPAERTKTESAIDIPLPPIAVEWLRELQRLAGVSKWVLPARKMQDRMIPHIAESTLSVALAKIKHGLEPFTIHDLRRTARTHFEALGVAPHIAERCLNHKIKGIEGIYNRHDYFEERKAALEAWAGLLLQIERGEADKVVPIRRAVATKQLEHHHHHH”, which protein production is on record?
**A.** The protein production was “failed”.

**Q.** With “MKSSDIDQDLFTDSYCKVCSAQLISESQRVAHYESRKHASKVRLYYMLHPRDGGCPAKRLRSENGSDADMVDKNKCCTLCNMSFTSAVVADSHYQGKIHAKRLKLLLGEKTPLKTTGLRRNYRCAICSVSLNSIEQYHAHLKGSKHQTNLKNK” as the sequence, how does the protein production read?
**A.** The protein production was “failed”.
